One block for each binder: values may come before it.
How the values were obtained:
[1] = molecular target: RPA70 as the subunit of the purified recombinant RPA complex (human, UniProt P27694 1-616); experiment: cross-linking
[2] = molecular target: T1, Human RPA complex (RPA70, RPA32, RPA14), recombinant full length (human, UniProt P27694;P15927;P35244); experiment: SEC
[3] = molecular target: T1, Human RPA complex (RPA70, RPA32, …); experiment: pull-down
[4] = molecular target: ZUP1;RPA complex WT (RPA70/RPA32/RPA14) (Homo sapiens;Homo sapiens, UniProt Q96AP4;P27694;P15927;P35244 1-578;1-616;1-270;1-121, |); experiment: EMSA
ZUP1;RPA complex WT (RPA70/RPA32/RPA14), sequence (P27694 whole entry, chain 2 of 3): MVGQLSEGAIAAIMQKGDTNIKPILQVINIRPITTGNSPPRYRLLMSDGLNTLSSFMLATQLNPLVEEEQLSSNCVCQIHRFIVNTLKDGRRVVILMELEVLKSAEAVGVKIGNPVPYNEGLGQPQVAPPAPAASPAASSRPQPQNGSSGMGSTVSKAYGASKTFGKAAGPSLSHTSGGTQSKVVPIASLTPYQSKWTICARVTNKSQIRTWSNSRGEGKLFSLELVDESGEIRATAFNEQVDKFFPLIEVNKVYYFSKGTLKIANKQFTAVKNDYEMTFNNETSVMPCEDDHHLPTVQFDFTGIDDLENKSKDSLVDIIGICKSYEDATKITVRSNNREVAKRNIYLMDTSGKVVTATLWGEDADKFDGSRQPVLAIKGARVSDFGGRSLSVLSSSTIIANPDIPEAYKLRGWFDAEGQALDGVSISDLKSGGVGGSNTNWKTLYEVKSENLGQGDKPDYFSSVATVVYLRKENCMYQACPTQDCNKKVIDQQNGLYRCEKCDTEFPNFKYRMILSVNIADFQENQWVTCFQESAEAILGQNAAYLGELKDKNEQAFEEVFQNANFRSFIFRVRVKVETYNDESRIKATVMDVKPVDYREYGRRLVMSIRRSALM
ZUP1;RPA complex WT (RPA70/RPA32/RPA14), sequence (P15927 whole entry, chain 3 of 3): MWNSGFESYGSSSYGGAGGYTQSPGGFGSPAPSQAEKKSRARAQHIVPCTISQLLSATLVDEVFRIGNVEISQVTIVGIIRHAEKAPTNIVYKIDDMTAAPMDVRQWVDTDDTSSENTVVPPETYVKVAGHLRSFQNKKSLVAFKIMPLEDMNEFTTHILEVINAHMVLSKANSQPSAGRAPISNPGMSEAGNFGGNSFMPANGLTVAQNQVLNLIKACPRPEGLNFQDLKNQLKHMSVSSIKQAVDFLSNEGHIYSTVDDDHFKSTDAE
ZUP1;RPA complex WT (RPA70/RPA32/RPA14), sequence (P35244 whole entry, chain 4 of 3): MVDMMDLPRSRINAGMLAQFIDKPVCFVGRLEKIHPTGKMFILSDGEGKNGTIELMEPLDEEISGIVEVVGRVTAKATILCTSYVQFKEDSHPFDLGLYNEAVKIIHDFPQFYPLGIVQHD

T1 sequence (P27694 whole entry, chain 1 of 3): as the sequence (P27694 whole entry, chain 2 of 3) above
T1 sequence (P15927 whole entry, chain 2 of 3): as the sequence (P15927 whole entry, chain 3 of 3) above
T1 sequence (P35244 whole entry, chain 3 of 3): as the sequence (P35244 whole entry, chain 4 of 3) above
UniProt P27694, sequence (P27694 whole entry, one chain of several): as the sequence (P27694 whole entry, chain 2 of 3) above

binding result [1]: binds | binding result [2]: binds
B1: ZUP1 C360A (catalytically inactive mutant of full length ZUP1) (enzyme)
chain: MLSCNICGETVTSEPDMKAHLIVHMESEIICPFCKLSGVNYDEMCFHIETAHFEQNTLERNFERINTVQYGTSDNKKDNTLQCGMEVNSSILSGCASNHPKNSAQNLTKDSTLKHEGFYSENLTESRKFLKSREKQSSLTEIKGSVYETTYSPPECPFCGKIEEHSEDMETHVKTKHANLLDIPLEDCDQPLYDCPMCGLICTNYHILQEHVDLHLEENSFQQGMDRVQCSGDLQLAHQLQQEEDRKRRSEESRQEIEEFQKLQRQYGLDNSGGYKQQQLRNMEIEVNRGRMPPSEFHRRKADMMESLALGFDDGKTKTSGIIEALHRYYQNAATDVRRVWLSSVVDHFHSSLGDKGWGAGYRNFQMLLSSLLQNDAYNDCLKGMLIPCIPKIQSMIEDAWKEGFDPQGASQLNNRLQGTKAWIGACEVYILLTSLRVKCHIVDFHKSTGPLGTHPRLFEWILNYYSSEGEGSPKVVCTSKPPIYLQHQGHSRTVIGIEEKKNRTLCLLILDPGCPSREMQKLLKQDIEASSLKQLRKSMGNLKHKQYQILAVEGALSLEEKLARRQASQVFTAEKIP

binding result [3]: binds
B2: GST-ZUP1 α-2/3-C78 (aa 272-578) (domain or fragment)
chain: SGGYKQQQLRNMEIEVNRGRMPPSEFHRRKADMMESLALGFDDGKTKTSGIIEALHRYYQNAATDVRRVWLSSVVDHFHSSLGDKGWGCGYRNFQMLLSSLLQNDAYNDCLKGMLIPCIPKIQSMIEDAWKEGFDPQGASQLNNRLQGTKAWIGACEVYILLTSLRVKCHIVDFHKSTGPLGTHPRLFEWILNYYSSEGEGSPKVVCTSKPPIYLQHQGHSRTVIGIEEKKNRTLCLLILDPGCPSREMQKLLKQDIEASSLKQLRKSMGNLKHKQYQILAVEGALSLEEKLARRQASQVFTAEKIP

B3: Gap-26 (mixed)
DNA 1: CTATGGCGAGGCGATTATCAACCCATTTAGTCGTAATAGTGAAGAGTCACGACAACATCG
DNA 2: TAATCGCCTCGCCATAG
DNA 3: CGATGTTGTCGTGACTC
binding result [4]: binds

Source: paper doi:10.1101/2023.01.27.525918 (bioRxiv, 2023)
